The values below come from publication doi:10.1101/2023.03.28.534543.

What all share (assay): SEC
For orientation: Size exclusion chromatography separates by hydrodynamic size, large species first.

Assay [1] has as its target CdpB2 from Archaeoglobus fulgidus (Archaeoglobus fulgidus).
Assay [2] has as its target SepF from Archaeoglobus fulgidus (Archaeoglobus fulgidus).
Assay [3] deals with CdpB1 from Archaeoglobus fulgidus (Archaeoglobus fulgidus).

By stoichiometry N is commonly meant the number of molecules, sites or subunits per partner or assembly. In assay [1], “CdpB2 from Archaeoglobus fulgidus (natural protein)” came in with a stoichiometry N of 2.
On to “SepF from Archaeoglobus fulgidus (natural protein)”, for which the stoichiometry N in assay [2] was found to be 2.
“CdpB1 from Archaeoglobus fulgidus (natural protein)” returned a stoichiometry N in assay [3] of 2.
